Test results taken from the Immune Epitope Database (IEDB).
pKd: −log10 of the molar value.

The sequences below were run against HLA-A*02:01 (assay: IEDB peptide-MHC binding, purified MHC/direct/fluorescence; filed as Kd, often an IC50 or EC50 that approximates it; ≥ and ≤ were set here for values at or beyond the usual limits of such assays). Details: source organism: Influenza A virus (A/Puerto Rico/8/1934(H1N1)).
With FLAMITYMT the pKd was 6.60.
FLARSALIL showed a pKd of 9.05.
In the case of FLKDVMESM, the pKd was 7.29.
FLLMDALKLSI was tested, and the pKd was 7.62.
FMQALHLLL was tested, and the pKd was 7.89.
GMFNMLSTV was tested, and the pKd was 7.64.
GMFNMLSTVL was tested, and the pKd was 6.42.
IILKANFSV gave a pKd of 7.35.
For LLQNSQVYS, the pKd was 5.86.
MMGMFNMLSTV was tested, and the pKd was 7.29.
With MMMGMFNMLST the pKd was 7.44.
RMGAVTTEV showed a pKd of 6.88.
With SLVGIDPFRL the pKd was 7.15.
VLMEWLKTRPI was tested, and the pKd was 7.00.
Work on WMMAMKYPI yielded a pKd of 7.44.
With WMMAMKYPITA the pKd was 7.12.
YLIRALTLNTM was tested, and the pKd was 7.34.
